# Where a chain is given by its changes, count along the chain named. Numbers in names are those of the source. Where “and” joins values, the source holds several entries; their conditions need not be identical. Identical values can stand only once.
# B1: human MRGBP MRG-binding domain (residues 69-119) (domain or fragment, UniProt Q9NV56 69-119, looked up)
# chain: GRQVPSKVIWDHLSTMYDMQALHESEILPFPNPERNFVLPEEIIQEVREGK
# B2: human MRGBP MBD I112A (domain or fragment, UniProt Q9NV56 69-119, looked up)
# chain: B1 chain with I44A
# B3: human MRGBP MBD M84A (domain or fragment, UniProt Q9NV56 69-119, looked up)
# chain: B1 chain with M16A
# B4: human PALB2 MBD (residues 579-629) (domain or fragment, UniProt Q86YC2 579-629, looked up)
# chain: AYLSLDDDAFTAPFHRDGMLSLKQLLSFLSITDFQLPDEDFGPLKLEKVKS
# Tests used:
# Test in all cases: ITC
# [1] = molecular target: Alanine mutations of MRG15 L168 and W172 (human)
# [2] = molecular target: human MRG15 MRG domain (residues 155-323) (human, UniProt Q9UBU8-2 155-323)
# Chain of human MRG15 MRG domain (residues 155-323) (Q9UBU8 194-362): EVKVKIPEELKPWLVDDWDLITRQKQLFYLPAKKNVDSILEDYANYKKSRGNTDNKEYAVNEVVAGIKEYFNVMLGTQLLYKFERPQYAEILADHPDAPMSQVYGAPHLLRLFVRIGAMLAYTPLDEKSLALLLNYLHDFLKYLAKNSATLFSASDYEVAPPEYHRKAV
# [3] = molecular target: human MRG15 MRG L287A (human, UniProt Q9UBU8-2 155-323, alanine mutation of L287)
# Chain of human MRG15 MRG L287A (Q9UBU8 194-362 L326A): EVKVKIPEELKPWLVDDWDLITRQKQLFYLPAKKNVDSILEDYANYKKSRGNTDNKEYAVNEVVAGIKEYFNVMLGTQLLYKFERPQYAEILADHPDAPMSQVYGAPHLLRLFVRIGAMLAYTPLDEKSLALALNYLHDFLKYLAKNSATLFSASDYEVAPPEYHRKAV
# [4] = molecular target: human MRG15 MRG L168A (human, UniProt Q9UBU8-2 155-323, alanine mutation of L168)
# Chain of human MRG15 MRG L168A (Q9UBU8 194-362 L207A): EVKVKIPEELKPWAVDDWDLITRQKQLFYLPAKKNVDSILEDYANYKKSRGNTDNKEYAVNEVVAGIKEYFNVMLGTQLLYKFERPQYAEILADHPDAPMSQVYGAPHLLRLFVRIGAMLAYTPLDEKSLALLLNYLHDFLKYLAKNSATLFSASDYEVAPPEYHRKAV
# [5] = molecular target: human MRG15 MRG W172A (human, UniProt Q9UBU8-2 155-323, alanine mutation of W172)
# Chain of human MRG15 MRG W172A (Q9UBU8 194-362 W211A): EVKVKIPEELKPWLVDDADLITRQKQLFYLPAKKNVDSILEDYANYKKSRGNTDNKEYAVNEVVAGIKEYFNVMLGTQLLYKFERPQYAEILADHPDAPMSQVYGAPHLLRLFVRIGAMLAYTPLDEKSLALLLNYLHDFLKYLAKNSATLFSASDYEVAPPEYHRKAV
Molecule,Kd [2] [nM],fold decrease in binding affinity relative to wild-type [2] [fold],also measured
human MRGBP MRG-binding domain (residues 69-119) (from UniProt Q9NV56 69-119) (domain or fragment),,,fold reduction in binding affinity [1]: 7 fold and 8 fold
B1,~60,,fold effect on binding [3]: > 2 fold; binding result [4]: binds; binding result [5]: binds
B2,,~13,
B3,,~3,
B4,~20,,

# — article PMC4456287 (Structure (London, England : 1993), 2015)
